Measured values reported in patent publication US20170073406A1.

What was measured:
[1] = target: biotinylated His-tagged TGF-β1 LAP C4S (Homo sapiens (Human)) (UniProt P01137); assay: ELISA, neutravidin plate with biotinylated His-tagged TGF-β1 LAP C4S; antibody dilution 1:1,000; fluorescent secondary detection
[2] = target: biotinylated His-tagged TGF-β1 LAP C4S (Homo sapiens (Human)) (UniProt P01137); assay: ELISA, neutravidin plate with biotinylated His-tagged TGF-β1 LAP C4S; antibody dilution 1:10,000; fluorescent secondary detection
[3] = target: biotinylated His-tagged TGF-β1 LAP C4S (Homo sapiens (Human)) (UniProt P01137); assay: ELISA, neutravidin plate with biotinylated His-tagged TGF-β1 LAP C4S; antibody dilution 1:5,000; fluorescent secondary detection

Chain of biotinylated His-tagged TGF-β1 LAP C4S (Homo sapiens (Human)) (P01137 other isoform, or with tags, fused parts or gaps limits assumed): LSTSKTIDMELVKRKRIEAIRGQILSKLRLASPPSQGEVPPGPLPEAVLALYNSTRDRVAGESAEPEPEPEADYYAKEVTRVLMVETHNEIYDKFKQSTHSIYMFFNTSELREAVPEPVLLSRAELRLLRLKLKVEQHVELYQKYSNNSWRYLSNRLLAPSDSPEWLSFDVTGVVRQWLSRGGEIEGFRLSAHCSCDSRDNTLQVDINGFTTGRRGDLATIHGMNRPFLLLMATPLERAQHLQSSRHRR

RFU [1]: 218 RFU
RFU [2]: 198 RFU
RFU [3]: 214 RFU
B1: 1D11 antibody (mouse monoclonal anti-TGF-β1, 2 and 3 antibody, R&D Systems, Minneapolis, Minn.) (antibody, from another filing, V domains shown)
VH: QVQLQQSGPELVRPGASVKLSCKASGYIFITYWMNWVKQRPGQGLEWIGQIFPASGSTNYNEMFEGKATLTVDTSSSTAYMQLSSLTSEDSAVYYCARGDGNYALDAMDYWGQGTSVTVSS
VL: DIVLTQSPASLAVSLGQRATISCRASESVDSYGNSFMHWYQQKSGQPPKLLIYLASNLESGVPARFSGSGSRTDFTLTIDPVEADDAATYYCQQNNEDPLTFGAGTKLEIK
